No end group written: not given here.
Key:
[1] = molecular target: human Mpl expressed on BaF3 cells (BaF3-human Mpl) (human) (UniProt P40238); assay: cell-based or functional assay
[2] = molecular target: T1, cynomolgus monkey Mpl expressed on CHO cells (CHO-monkey Mpl) (cynomolgus monkey, UniProt P40238 26-635 (human entry)); assay: flow cytometry on CHO-monkey Mpl cells; COS7 culture supernatant; detection with anti-FLAG M2 antibody and FITC-labeled anti-mouse IgG
T1 construct: pCXND3-monkey Mpl-His in CHO-DG44; also called monkey Mpl-His
T1 chain: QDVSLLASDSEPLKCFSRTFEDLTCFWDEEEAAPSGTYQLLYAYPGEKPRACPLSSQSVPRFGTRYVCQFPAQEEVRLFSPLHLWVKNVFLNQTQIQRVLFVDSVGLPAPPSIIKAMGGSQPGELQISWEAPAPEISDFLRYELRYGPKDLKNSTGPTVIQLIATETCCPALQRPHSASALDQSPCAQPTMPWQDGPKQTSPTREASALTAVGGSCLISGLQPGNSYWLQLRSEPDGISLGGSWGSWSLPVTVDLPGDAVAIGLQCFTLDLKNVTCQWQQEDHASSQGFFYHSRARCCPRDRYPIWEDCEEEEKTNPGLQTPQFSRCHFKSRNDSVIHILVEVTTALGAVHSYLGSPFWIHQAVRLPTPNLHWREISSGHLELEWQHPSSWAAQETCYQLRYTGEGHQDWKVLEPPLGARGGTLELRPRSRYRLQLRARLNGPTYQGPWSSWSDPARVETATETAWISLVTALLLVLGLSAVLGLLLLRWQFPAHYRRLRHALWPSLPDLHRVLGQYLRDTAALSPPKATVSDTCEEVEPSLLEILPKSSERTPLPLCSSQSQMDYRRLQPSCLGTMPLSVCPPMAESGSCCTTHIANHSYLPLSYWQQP
Description: (§1) CHO-human Mpl, CHO-monkey Mpl, and CHO-mouse Mpl cells were recovered and suspended in FACS buffer (1% FBS/PBS) to a final concentration of 1×10⁶ cells/mL. Cell suspensions were aliquoted at 100-μL/well into the Multiscreen-HV Filter Plates (Millipore). After centrifugation, the supernatant was removed. An appropriate concentration of diabody or sc(Fv)2 was added into each well and incubated on ice for 30 min. The cells were washed once with 200 μL of FACS buffer, and incubated on ice for 30 min following the addition of 10 μg/mL ANTI-FLAG® M2 Monoclonal Antibody (Sigma-Aldrich). The cells were then washed once with 200 μL of FACS buffer, and a 100×-diluted FITC-labeled anti-mouse IgG antibody (Beckman Coulter) was added to the plate. The plate was incubated on ice for 30 min. After centrifugation, the supernatant was removed. The cells were suspended in 400 μL of FACS Buffer, and then analyzed by flow cytometry using EPICS ELITE ESP (Beckman Coulter). An analysis gate was set on the forward and side scatters of a histogram to include viable cell populations.
(§2) The binding activities of the diabodies were assessed by flow cytometry using CHO cells that express Mpl derived from various species (FIG. 8). AB317 was proven to bind to CHO-mouse Mpl.

[3] = molecular target: T2, mouse Mpl expressed on CHO cells (CHO-mouse Mpl) (mouse, UniProt Q08351 26-625); assay: flow cytometry on CHO-mouse Mpl cells; COS7 culture supernatant; detection with anti-FLAG M2 antibody and FITC-labeled anti-mouse IgG
T2 construct: whole, on cells; pCXND3-mouse Mpl-His in CHO-DG44; also called mouse Mpl-His
T2 sequence (looked up): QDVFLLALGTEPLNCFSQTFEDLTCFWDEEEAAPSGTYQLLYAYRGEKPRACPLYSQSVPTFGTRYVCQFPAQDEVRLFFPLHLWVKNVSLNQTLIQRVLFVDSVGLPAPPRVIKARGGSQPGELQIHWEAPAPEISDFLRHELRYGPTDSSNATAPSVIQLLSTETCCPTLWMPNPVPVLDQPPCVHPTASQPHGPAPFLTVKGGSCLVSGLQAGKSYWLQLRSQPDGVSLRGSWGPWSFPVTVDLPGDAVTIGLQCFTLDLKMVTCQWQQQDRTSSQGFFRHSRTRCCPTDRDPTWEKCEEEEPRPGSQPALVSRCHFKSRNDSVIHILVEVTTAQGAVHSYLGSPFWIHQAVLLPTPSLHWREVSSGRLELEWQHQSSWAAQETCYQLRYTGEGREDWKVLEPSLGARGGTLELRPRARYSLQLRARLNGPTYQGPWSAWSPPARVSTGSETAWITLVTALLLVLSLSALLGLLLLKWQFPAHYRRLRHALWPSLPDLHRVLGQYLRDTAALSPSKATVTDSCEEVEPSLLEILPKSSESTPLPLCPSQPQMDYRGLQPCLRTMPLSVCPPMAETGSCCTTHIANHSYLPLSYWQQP
Description: as §1, §2

[4] = molecular target: T3, human Mpl expressed on BaF3 cells (BaF3-human Mpl) (human, UniProt P40238 26-635); assay: cell-based or functional assay
T3 sequence: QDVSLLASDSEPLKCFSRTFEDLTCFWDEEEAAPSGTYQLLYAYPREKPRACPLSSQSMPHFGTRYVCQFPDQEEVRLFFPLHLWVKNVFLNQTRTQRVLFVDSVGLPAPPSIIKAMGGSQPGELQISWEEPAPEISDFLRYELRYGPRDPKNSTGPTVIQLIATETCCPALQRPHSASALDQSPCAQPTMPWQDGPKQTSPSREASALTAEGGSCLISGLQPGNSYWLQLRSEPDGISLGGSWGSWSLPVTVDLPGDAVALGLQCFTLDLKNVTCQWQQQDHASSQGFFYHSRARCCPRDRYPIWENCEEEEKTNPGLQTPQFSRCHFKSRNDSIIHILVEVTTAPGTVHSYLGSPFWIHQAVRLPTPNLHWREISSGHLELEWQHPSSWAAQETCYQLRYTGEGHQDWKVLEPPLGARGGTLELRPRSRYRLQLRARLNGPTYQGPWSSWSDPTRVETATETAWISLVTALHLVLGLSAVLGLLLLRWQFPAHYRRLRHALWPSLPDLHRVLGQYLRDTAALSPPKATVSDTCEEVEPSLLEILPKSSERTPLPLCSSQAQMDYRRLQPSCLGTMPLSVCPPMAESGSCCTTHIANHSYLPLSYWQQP

[5] = molecular target: T2, mouse Mpl expressed on CHO cells …; assay: flow cytometry on CHO cells, detection by anti-FLAG M2 and FITC anti-mouse IgG
Description: as §1
(§3) The binding activity of the purified VB22B sc(Fv)2 to various Mpl molecules expressed in CHO cells was determined (FIG. 2).

[6] = molecular target: T1, cynomolgus monkey Mpl expressed on CHO …; assay: as above
Description: as §1, §3

[7] = molecular target: T4, MG10 (Gln213 to Ala231)-GST fusion protein (human, also: fused with GST); assay: SPR, Biacore 3000, MG10-GST immobilized on CM5, Bivalent analyte model (constants as for the monovalent antibody), triplicate
T4 construct: As MG1; also called MG10-GST fusion protein; GST fusion protein containing MG10; not shown: glutathione-S-transferase of vector pGEX-4T-3 (Amersham Biosciences)
T4 chain: QPTMPWQDGPKQTSPSREA
Description: The Sensor Chip CM5 (Biacore) was placed in Biacore 3000 (Biacore), and MG10-GST fusion protein was immobilized onto the chip by amine-coupling methods. HBS-EP Buffer (Biacore) was used as the running buffer, and the flow rate was 20 μL/min. 5.5 to 175.0 nM of VB22B IgG solution was prepared using HBS-EP Buffer, and injected over each of the chip surfaces for 2 min to obtain the binding region at the respective concentrations. Then, dissociation region for the 2 minutes was measured. VB22B IgG bound to the MG10-GST fusion protein on the sensor chip was removed by injecting 20 mM HCl over the sensor chip for 1 min, and the chip was recovered. Similarly, 4.7 to 150.1 nM of VB22B sc(Fv)2, 5.3 to 168.9 nM of hVB22B q-wz5 sc(Fv)2, and 4.9 to 156.8 nM of hVB22B u2-wz4 sc(Fv)2 were prepared and injected over the chip surfaces onto which MG10-GST fusion protein was immobilized, and the measurement was carried out.
All the antibodies used were bivalent antibodies, and thus the sensorgrams at each concentration were obtained in the presence of both monovalent and bivalent bindings. In this context, the reaction rate constant was determined as that for the monovalent antibody by analysis using the Bivalent analyte model of BIAevaluation ver.3.1 software (Biacore). The above analysis was carried out in triplicates for each antibody. The binding rate constant (ka), dissociation rate constant (kd), and dissociation constant (KD) were determined as those for the monovalent antibody by the procedure described above. The constants are indicated below in Table 1.

| Molecule | agonistic activity, EC50 (growth of BaF3-human Mpl, WST-8) [1] | binding result [2] | binding result [3] | TPO-like agonistic activity, EC50 (growth of BaF3-human Mpl, WST-8) [4] | binding result [5] | binding result [6] | Kd [7] | koff [7] | kon [7] |
| --- | --- | --- | --- | --- | --- | --- | --- | --- | --- |
| recombinant human thrombopoietin (rhTPO, R&D) (from UniProt P40225 22-353) (ligand) | 76 pM | – | – | – | – | – | – | – | – |
| VB22B diabody (scFv, also called VB22B db; VB22B single-chain Fv) scFv: QVQLQQSGPELVKPGASVKISCKASGYAFTNSWMNWVKQRPGKGLEWIGRIYPGDGETIYNGKFRVKATLTADKSSSTAYMDISSLTSEDSAVYFCARGYDDYSFAYWGQGTLVTVSAGGGGSDIVMTQAAPSIPVTPGESVSISCRSSKSLLHSNGNTYLYWFLQRPGQSPQLLIYRMSNLASGVPDRFSGSGSGTAFTLRISRVEAEDVGVYYCMQHIEYPFTFGSGTKLEIK | – | binds | no binding | 61 pM | – | – | – | – | – |
| VB22B sc(Fv)2 (scFv, Single-chain (Fv)2 with 15-residue linkers, purified on anti-Flag gel (FLAG-tagged); also called murine VB22B sc(Fv)2; anti-human Mpl sc(Fv)2) QVQLQQSGPELVKPGASVKISCKASGYAFTNSWMNWVKQRPGKGLEWIGRIYPGDGETIYNGKFRVKATLTADKSSSTAYMDISSLTSEDSAVYFCARGYDDYSFAYWGQGTLVTVSAGGGGSGGGGSGGGGSDIVMTQAAPSIPVTPGESVSISCRSSKSLLHSNGNTYLYWFLQRPGQSPQLLIYRMSNLASGVPDRFSGSGSGTAFTLRISRVEAEDVGVYYCMQHIEYPFTFGSGTKLEIKGGGGSGGGGSGGGGSQVQLQQSGPELVKPGASVKISCKASGYAFTNSWMNWVKQRPGKGLEWIGRIYPGDGETIYNGKFRVKATLTADKSSSTAYMDISSLTSEDSAVYFCARGYDDYSFAYWGQGTLVTVSAGGGGSGGGGSGGGGSDIVMTQAAPSIPVTPGESVSISCRSSKSLLHSNGNTYLYWFLQRPGQSPQLLIYRMSNLASGVPDRFSGSGSGTAFTLRISRVEAEDVGVYYCMQHIEYPFTFGSGTKLEIK | – | – | – | 27 pM | no binding | binds | 11.7 nM | 0.00491 s⁻¹ | 423000 M⁻¹ s⁻¹ |
| hVB22B q-wz5 sc(Fv)2 (scFv, Humanized sc(Fv)2 without Flag tag, purified on an MG10-GST column; also called humanized VB22B sc(Fv)2 (q-wz5)) QVQLVQSGPEVKKPGASVKVSCKASGYTFTNSWMNWVRQRPGKGLEWIGRIYPGDGETIYNGKFRVRVTITADESTSTAYMELSSLRSEDTAVYYCARGYDDYSFAYWGQGTTVTVSSGGGGSGGGGSGGGGSDIVMTQSPLSLPVTPGEPASISCRSSKSLLHSNGNTYLYWFQQKPGQAPRLLIYRMSNLASGVPDRFSGSGSGTAFTLKISRVEAEDVGVYYCMQHIEYPFTFGQGTKLEIKGGGGSGGGGSGGGGSQVQLVQSGPEVKKPGASVKVSCKASGYTFTNSWMNWVRQRPGKGLEWIGRIYPGDGETIYNGKFRVRVTITADESTSTAYMELSSLRSEDTAVYYCARGYDDYSFAYWGQGTTVTVSSGGGGSGGGGSGGGGSDIVMTQSPLSLPVTPGEPASISCRSSKSLLHSNGNTYLYWFQQKPGQAPRLLIYRMSNLASGVPDRFSGSGSGTAFTLKISRVEAEDVGVYYCMQHIEYPFTFGQGTKLEIK | – | – | – | – | – | – | 13.6 nM | 0.0051 s⁻¹ | 376000 M⁻¹ s⁻¹ |
| hVB22B u2-wz4 sc(Fv)2 (scFv, Humanized sc(Fv)2 without Flag tag, purified on an MG10-GST column; also called humanized VB22B sc(Fv)2 (u2-wz4)) QVQLVQSGPEVKKPGASVKVSCKASGYTFTNSWMNWVRQRPGKGLEWIGRIYPGDGETIYNGKFRVRVTITADESTSTAYMQLSSLRSEDTAVYYCARGYDDYSFAYWGQGTTVTVSSGGGGSGGGGSGGGGSDIVMTQSPLSLPVTPGEPASISCRSSKSLLHSNGNTYLYWFLQKPGQSPQLLIYRMSNLASGVPDRFSGSGSGTDFTLKISRVEAEDVGVYYCMQHIEYPFTFGQGTKLEIKGGGGSGGGGSGGGGSQVQLVQSGPEVKKPGASVKVSCKASGYTFTNSWMNWVRQRPGKGLEWIGRIYPGDGETIYNGKFRVRVTITADESTSTAYMQLSSLRSEDTAVYYCARGYDDYSFAYWGQGTTVTVSSGGGGSGGGGSGGGGSDIVMTQSPLSLPVTPGEPASISCRSSKSLLHSNGNTYLYWFLQKPGQSPQLLIYRMSNLASGVPDRFSGSGSGTDFTLKISRVEAEDVGVYYCMQHIEYPFTFGQGTKLEIK | – | – | – | – | – | – | 10.2 nM | 0.00617 s⁻¹ | 608000 M⁻¹ s⁻¹ |

Reference: patent publication US20060222643A1 (Chugai, published 2006)
